Results from patent US20260209386A1 (MYTHIC THERAPEUTICS, published 2026).

T1: Human PTK7/CCK4 Protein, His Tag, Acro Biosystems PT7-H52H3 (human, UniProt Q13308 31-704)
T1 construct: bought protein; also called Human PTK7 Protein, His Tag, Acro Biosystems; not shown: His tag
T1 sequence: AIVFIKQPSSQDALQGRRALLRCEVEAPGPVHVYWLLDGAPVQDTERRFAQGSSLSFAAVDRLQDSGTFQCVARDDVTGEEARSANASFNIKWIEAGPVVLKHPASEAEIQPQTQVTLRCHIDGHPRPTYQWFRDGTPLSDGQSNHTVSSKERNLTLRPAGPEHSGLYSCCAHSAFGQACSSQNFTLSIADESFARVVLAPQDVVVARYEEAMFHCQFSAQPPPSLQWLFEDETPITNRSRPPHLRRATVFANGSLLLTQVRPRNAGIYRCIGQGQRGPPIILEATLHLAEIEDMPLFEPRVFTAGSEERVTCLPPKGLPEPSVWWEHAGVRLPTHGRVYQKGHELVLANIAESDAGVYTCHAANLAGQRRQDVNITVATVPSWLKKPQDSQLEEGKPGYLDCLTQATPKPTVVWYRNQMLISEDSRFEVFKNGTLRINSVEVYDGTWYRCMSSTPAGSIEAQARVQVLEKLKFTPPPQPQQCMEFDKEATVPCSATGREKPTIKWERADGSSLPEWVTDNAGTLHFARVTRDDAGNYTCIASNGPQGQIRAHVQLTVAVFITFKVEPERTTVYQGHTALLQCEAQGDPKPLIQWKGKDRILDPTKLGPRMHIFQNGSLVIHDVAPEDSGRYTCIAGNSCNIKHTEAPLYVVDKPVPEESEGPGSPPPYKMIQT

B1: MYT10974 (antibody, V domains shown)
VH: EVQLVESGGGLVQPGGSLRLSCTASGFSLSSYAMGWVRQAPGKGLEWVGFINAGGNTYYANWHKGRFTISRDTSKNTVYLQMNSLRAEDTAVYFCARRYSRASGWYDLWGQGTLVTVSS
VL: EIVMTQSPSTLSASVGDRVIITCQASQSISSYLAWYQQKPGKAPKLLIYAASTLASGVPSRFSGSGSGAEFTLTISSLQPDDFATYYCQSYSYSSGIDYGDVFGQGTKLTVL
notes: IgG
B2: MYT10980 (antibody, V domains shown)
VH: EVQLVESGGGLVQPGGSLRLSCTASGFSLSSYAMGWVRQAPGKGLEWVGFINAGGNTYYANWAKGRFTISRDTSKNTVYLQMNSLRAEDTAVYFCARRHSRASGWYDLWGQGTLVTVSS
VL: EIVMTQSPSTLSASVGDRVIITCQASQSISSYLAWYQQKPGKAPKLLIYAASTLASGVPSRFSGSGSGAEFTLTISSLQPDDFATYYCQSYSYSSGIDYGDVFGQGTKLTVL
notes: IgG
B3: MYT10997 (antibody, V domains shown)
VH: EVQLVESGGGLVQPGGSLRLSCTASGFSLSSYAMGWVRQAPGKGLEWVGFINAGGNTYYANWAKGRFTISRDTSKNTVYLQMNSLRAEDTAVYFCARRYSRASGWYDLWGQGTLVTVSS
VL: EIVMTQSPSTLSASVGDRVIITCQASQSHSSYLAWYQQKPGKAPKLLIYAASTLASGVPSRFSGSGSGAEFTLTISSLQPDDFATYYCQSYSYSSGIDYGDVFGQGTKLTVL
notes: IgG
B4: MYT11010 (antibody, V domains shown)
VH: EVQLVESGGGLVQPGGSLRLSCTASGFSLSSYAMGWVRQAPGKGLEWVGFINAGGNTYYANWAKGRFTISRDTSKNTVYLQMNSLRAEDTAVYFCARRYSRASGWYDLWGQGTLVTVSS
VL: EIVMTQSPSTLSASVGDRVIITCQASQSISSYLAWYQQKPGKAPKLLIYAASTLASGVPSRFSGSGSGAEFTLTISSLQPDDFATYYCHSYSYSSGIDYGDVFGQGTKLTVL
notes: IgG
B5: MYT11004 (antibody, V domains shown)
VH: EVQLVESGGGLVQPGGSLRLSCTASGFSLSSYAMGWVRQAPGKGLEWVGFINAGGNTYYANWAKGRFTISRDTSKNTVYLQMNSLRAEDTAVYFCARRYSRASGWYDLWGQGTLVTVSS
VL: EIVMTQSPSTLSASVGDRVIITCQASQSISSYLAWYQQKPGKAPKLLIYAHSTLASGVPSRFSGSGSGAEFTLTISSLQPDDFATYYCQSYSYSSGIDYGDVFGQGTKLTVL
notes: IgG
B6: MYT10993 (antibody, V domains shown)
VH: EVQLVESGGGLVQPGGSLRLSCTASGFSLSSYAMGWVRQAPGKGLEWVGFINAGGNTYYANWAKGRFTISRDTSKNTVYLQMNSLRAEDTAVYFCARRYSRASGWYDLWGQGTLVTVSS
VL: EIVMTQSPSTLSASVGDRVIITCQHSQSISSYLAWYQQKPGKAPKLLIYAASTLASGVPSRFSGSGSGAEFTLTISSLQPDDFATYYCQSYSYSSGIDYGDVFGQGTKLTVL
notes: IgG
B7: MYT11014 (antibody, V domains shown)
VH: EVQLVESGGGLVQPGGSLRLSCTASGFSLSSYAMGWVRQAPGKGLEWVGFINAGGNTYYANWAKGRFTISRDTSKNTVYLQMNSLRAEDTAVYFCARRYSRASGWYDLWGQGTLVTVSS
VL: EIVMTQSPSTLSASVGDRVIITCQASQSISSYLAWYQQKPGKAPKLLIYAASTLASGVPSRFSGSGSGAEFTLTISSLQPDDFATYYCQSYSHSSGIDYGDVFGQGTKLTVL
notes: IgG
B8: MYT11018 (antibody, V domains shown)
VH: EVQLVESGGGLVQPGGSLRLSCTASGFSLSSYAMGWVRQAPGKGLEWVGFINAGGNTYYANWAKGRFTISRDTSKNTVYLQMNSLRAEDTAVYFCARRYSRASGWYDLWGQGTLVTVSS
VL: EIVMTQSPSTLSASVGDRVIITCQASQSISSYLAWYQQKPGKAPKLLIYAASTLASGVPSRFSGSGSGAEFTLTISSLQPDDFATYYCQSYSYSSGHDYGDVFGQGTKLTVL
notes: IgG
B9: MYT10978 (antibody, V domains shown)
VH: EVQLVESGGGLVQPGGSLRLSCTASGFSLSSYAMGWVRQAPGKGLEWVGFINAGGNTYYANWAKGRFTISRDTSKNTVYLQMNSLRAEDTAVYFCAHRYSRASGWYDLWGQGTLVTVSS
VL: EIVMTQSPSTLSASVGDRVIITCQASQSISSYLAWYQQKPGKAPKLLIYAASTLASGVPSRFSGSGSGAEFTLTISSLQPDDFATYYCQSYSYSSGIDYGDVFGQGTKLTVL
notes: IgG
B10: MYT11003 (antibody, V domains shown)
VH: EVQLVESGGGLVQPGGSLRLSCTASGFSLSSYAMGWVRQAPGKGLEWVGFINAGGNTYYANWAKGRFTISRDTSKNTVYLQMNSLRAEDTAVYFCARRYSRASGWYDLWGQGTLVTVSS
VL: EIVMTQSPSTLSASVGDRVIITCQASQSISSYLAWYQQKPGKAPKLLIYHASTLASGVPSRFSGSGSGAEFTLTISSLQPDDFATYYCQSYSYSSGIDYGDVFGQGTKLTVL
notes: IgG
B11: MYT11000 (antibody, V domains shown)
VH: EVQLVESGGGLVQPGGSLRLSCTASGFSLSSYAMGWVRQAPGKGLEWVGFINAGGNTYYANWAKGRFTISRDTSKNTVYLQMNSLRAEDTAVYFCARRYSRASGWYDLWGQGTLVTVSS
VL: EIVMTQSPSTLSASVGDRVIITCQASQSISSHLAWYQQKPGKAPKLLIYAASTLASGVPSRFSGSGSGAEFTLTISSLQPDDFATYYCQSYSYSSGIDYGDVFGQGTKLTVL
notes: IgG
B12: MYT11006 (antibody, V domains shown)
VH: EVQLVESGGGLVQPGGSLRLSCTASGFSLSSYAMGWVRQAPGKGLEWVGFINAGGNTYYANWAKGRFTISRDTSKNTVYLQMNSLRAEDTAVYFCARRYSRASGWYDLWGQGTLVTVSS
VL: EIVMTQSPSTLSASVGDRVIITCQASQSISSYLAWYQQKPGKAPKLLIYAASHLASGVPSRFSGSGSGAEFTLTISSLQPDDFATYYCQSYSYSSGIDYGDVFGQGTKLTVL
notes: IgG
B13: MYT11001 (antibody, V domains shown)
VH: EVQLVESGGGLVQPGGSLRLSCTASGFSLSSYAMGWVRQAPGKGLEWVGFINAGGNTYYANWAKGRFTISRDTSKNTVYLQMNSLRAEDTAVYFCARRYSRASGWYDLWGQGTLVTVSS
VL: EIVMTQSPSTLSASVGDRVIITCQASQSISSYHAWYQQKPGKAPKLLIYAASTLASGVPSRFSGSGSGAEFTLTISSLQPDDFATYYCQSYSYSSGIDYGDVFGQGTKLTVL
notes: IgG
B14: MYT11013 (antibody, V domains shown)
VH: EVQLVESGGGLVQPGGSLRLSCTASGFSLSSYAMGWVRQAPGKGLEWVGFINAGGNTYYANWAKGRFTISRDTSKNTVYLQMNSLRAEDTAVYFCARRYSRASGWYDLWGQGTLVTVSS
VL: EIVMTQSPSTLSASVGDRVIITCQASQSISSYLAWYQQKPGKAPKLLIYAASTLASGVPSRFSGSGSGAEFTLTISSLQPDDFATYYCQSYHYSSGIDYGDVFGQGTKLTVL
notes: IgG
B15: MYT11012 (antibody, V domains shown)
VH: EVQLVESGGGLVQPGGSLRLSCTASGFSLSSYAMGWVRQAPGKGLEWVGFINAGGNTYYANWAKGRFTISRDTSKNTVYLQMNSLRAEDTAVYFCARRYSRASGWYDLWGQGTLVTVSS
VL: EIVMTQSPSTLSASVGDRVIITCQASQSISSYLAWYQQKPGKAPKLLIYAASTLASGVPSRFSGSGSGAEFTLTISSLQPDDFATYYCQSHSYSSGIDYGDVFGQGTKLTVL
notes: IgG
B16: MYT11021 (antibody, V domains shown)
VH: EVQLVESGGGLVQPGGSLRLSCTASGFSLSSYAMGWVRQAPGKGLEWVGFINAGGNTYYANWAKGRFTISRDTSKNTVYLQMNSLRAEDTAVYFCARRYSRASGWYDLWGQGTLVTVSS
VL: EIVMTQSPSTLSASVGDRVIITCQASQSISSYLAWYQQKPGKAPKLLIYAASTLASGVPSRFSGSGSGAEFTLTISSLQPDDFATYYCQSYSYSSGIDYHDVFGQGTKLTVL
notes: IgG
B17: MYT10998 (antibody, V domains shown)
VH: EVQLVESGGGLVQPGGSLRLSCTASGFSLSSYAMGWVRQAPGKGLEWVGFINAGGNTYYANWAKGRFTISRDTSKNTVYLQMNSLRAEDTAVYFCARRYSRASGWYDLWGQGTLVTVSS
VL: EIVMTQSPSTLSASVGDRVIITCQASQSIHSYLAWYQQKPGKAPKLLIYAASTLASGVPSRFSGSGSGAEFTLTISSLQPDDFATYYCQSYSYSSGIDYGDVFGQGTKLTVL
notes: IgG
B18: MYT10999 (antibody, V domains shown)
VH: EVQLVESGGGLVQPGGSLRLSCTASGFSLSSYAMGWVRQAPGKGLEWVGFINAGGNTYYANWAKGRFTISRDTSKNTVYLQMNSLRAEDTAVYFCARRYSRASGWYDLWGQGTLVTVSS
VL: EIVMTQSPSTLSASVGDRVIITCQASQSISHYLAWYQQKPGKAPKLLIYAASTLASGVPSRFSGSGSGAEFTLTISSLQPDDFATYYCQSYSYSSGIDYGDVFGQGTKLTVL
notes: IgG

target: T1, Human PTK7/CCK4 Protein, His Tag, Acro …; assay: BLI, antibody on anti-human Fc sensor, 50 nM PTK7

Binding result, binds:
B1
B2
B3
B4
B5
B6
B7
B8
B9
B10
B11
B12
B13
B14
B15
B16
B17
B18
